Several values for one entry are separate records, joined by “and”; a condition that tells them apart may be missing. Identical values can stand only once. Positions of bridges follow the written chain, without caps; N, C: chain ends. Non-standard residues stand in square brackets, D forms with d.
T1: human Protein S (UniProt P07225 42-676)
T1 chain: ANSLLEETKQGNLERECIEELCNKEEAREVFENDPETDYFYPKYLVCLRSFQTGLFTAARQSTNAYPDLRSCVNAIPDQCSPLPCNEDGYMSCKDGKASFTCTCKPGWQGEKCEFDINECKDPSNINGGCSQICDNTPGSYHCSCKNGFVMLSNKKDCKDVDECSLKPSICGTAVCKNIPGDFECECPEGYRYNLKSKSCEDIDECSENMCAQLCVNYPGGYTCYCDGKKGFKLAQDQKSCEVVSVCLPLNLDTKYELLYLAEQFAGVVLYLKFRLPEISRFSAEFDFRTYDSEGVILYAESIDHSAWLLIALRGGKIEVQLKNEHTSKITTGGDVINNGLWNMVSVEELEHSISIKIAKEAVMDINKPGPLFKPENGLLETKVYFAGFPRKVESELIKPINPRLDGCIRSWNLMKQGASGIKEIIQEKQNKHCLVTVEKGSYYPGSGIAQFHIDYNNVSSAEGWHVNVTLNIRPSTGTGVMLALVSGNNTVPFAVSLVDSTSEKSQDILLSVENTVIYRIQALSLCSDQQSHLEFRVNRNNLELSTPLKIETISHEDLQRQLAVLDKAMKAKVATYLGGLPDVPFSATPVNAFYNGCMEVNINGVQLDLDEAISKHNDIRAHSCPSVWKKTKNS


Biological target: T1, human Protein S
Test: LANCE competition
Procedure, shortened: (§1)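 This homogeneous time-resolved FRET competition assay (LANCE) used europium-labelled Protein S, ULight-labelled streptavidin and a biotinylated tracer peptide, with unlabelled test peptide titrated in three-fold steps. Final concentrations were 10 nM Protein S, 100 nM streptavidin and 300 nM tracer in 50 µl (or 2 nM Protein S and 60 nM tracer on a Tecan F500). Samples were incubated 1 hour at room temperature and read at Ex 340 nm, Em 665 nm. IC50 came from non-linear regression of the 665 nm signals.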

IC50 [nM]	Binder
1510	Ac-TCLVSAGWYDCYNFDHYREFT-NH2 (disulfide 2-11; SMILES CC(=O)N[C@H](C(=O)N[C@H]1CSSC[C@@H](C(=O)N[C@@H](Cc2ccc(O)cc2)C(=O)N[C@@H](CC(N)=O)C(=O)N[C@@H](Cc2ccccc2)C(=O)N[C@@H](CC(=O)O)C(=O)N[C@@H](Cc2c[nH]cn2)C(=O)N[C@@H](Cc2ccc(O)cc2)C(=O)N[C@@H](CCCNC(=N)N)C(=O)N[C@@H](CCC(=O)O)C(=O)N[C@@H](Cc2ccccc2)C(=O)N[C@H](C(N)=O)[C@@H](C)O)NC(=O)[C@H](CC(=O)O)NC(=O)[C@H](Cc2ccc(O)cc2)NC(=O)[C@H](Cc2c[nH]c3ccccc23)NC(=O)CNC(=O)[C@H](C)NC(=O)[C@H](CO)NC(=O)[C@H](C(C)C)NC(=O)[C@H](CC(C)C)NC1=O)[C@@H](C)O) [JBS3162]

Biological target: T1, human Protein S
Test: LANCE competition
Remark: another data set of the same source
Procedure, shortened: as §1

Binder	IC50
Ac-TSHVSAGWYDYNFDHYREFT-NH2 [JBS2649]	31.8 nM
Ac-TAHVSAGWYDYNFDLYREFT-NH2 [JBS2680]	6 nM
Ac-GAHVSAGWYDYNFDLYREFT-NH2 [JBS2683]	5.6 nM
Ac-TGHVSAGWYDYNFDHYRE-NH2 [JBS2678]	1810 nM
TGLVSAGWYDYNFDHYREFTC [JBS2713]	20.1 nM
Ac-TGSVSAGWYDYNFDHYREFT-NH2 [JBS2650]	25.1 nM
Ac-TFHVSAGWYDYNFDHYREFT-NH2 [JBS2611]	12.5 nM
Ac-PGHVSAGWYDYNFDHYREFT-NH2 [JBS2628]	27 nM
Ac-GGHVSAGWYDYNFDLYREFT-NH2 [JBS2682]	7.5 nM
Ac-LGHVSAGWYDYNFDHYREFT-NH2 [JBS2570]	18.8 nM
Ac-KGHVSAGWYDYNFDHYREFT-NH2 [JBS2590]	11.4 nM
Ac-GGHVSAGWYDYNKDHYREFT-NH2 [JBS2676]	11.6 nM
Ac-TGHVSAGWYDYNFDFYREFT-NH2 [JBS2623]	15.1 nM
Ac-GAHVSAGWYDYNFDHYREFT-NH2 [JBS2681]	18.7 nM
Ac-FGHVSAGWYDYNFDHYREFT-NH2 [JBS2610]	15.5 nM
Ac-TGHVSAGWYDYNFDHYSEFT-NH2 [JBS2663]	28.4 nM
Ac-TAHVSAGWYDYNFDDYREFT-NH2 [JBS2679]	30 nM
Ac-TGLVEAGWYDYNFDHYREFT-NH2 [JBS2740]	16.4 nM
Ac-TGHVSAGWYDYNFDHYRPFT-NH2 [JBS2645]	9.4 nM
Ac-SGHVSAGWYDYNFDHYREFT-NH2 [JBS2648]	18.6 nM
Ac-TGHVSAGWYDYNSDHYREFT-NH2 [JBS2659]	16.4 nM
Ac-TGFVSAGWYDYNFDHYREFT-NH2 [JBS2612]	17 nM
Ac-TGLVSAGWYDYN[dA]DHYREFT-NH2 (SMILES CC(=O)N[C@H](C(=O)NCC(=O)N[C@@H](CC(C)C)C(=O)N[C@H](C(=O)N[C@@H](CO)C(=O)N[C@@H](C)C(=O)NCC(=O)N[C@@H](Cc1c[nH]c2ccccc12)C(=O)N[C@@H](Cc1ccc(O)cc1)C(=O)N[C@@H](CC(=O)O)C(=O)N[C@@H](Cc1ccc(O)cc1)C(=O)N[C@@H](CC(N)=O)C(=O)N[C@H](C)C(=O)N[C@@H](CC(=O)O)C(=O)N[C@@H](Cc1c[nH]cn1)C(=O)N[C@@H](Cc1ccc(O)cc1)C(=O)N[C@@H](CCCNC(=N)N)C(=O)N[C@@H](CCC(=O)O)C(=O)N[C@@H](Cc1ccccc1)C(=O)N[C@H](C(N)=O)[C@@H](C)O)C(C)C)[C@@H](C)O) [JBS2734]	792 nM
Ac-GGHVSAGWYDYNADHYREFT-NH2 [JBS2684]	12.5 nM

Continued, values first:

IC50	Binder
3.1 nM	Ac-TGLVSAGWYDYNFDVYREFT-NH2 [JBS2903]
13.5 nM	Ac-TGLVSAGWYNYNFDHYREFT-NH2 [JBS2823]
1.5 nM	Ac-EGYVSAGWYDYNTDTYYEFE-NH2 [JBS3222]
3.6 nM	Ac-TGLVSAGWYDYNFDHYWEFT-NH2 [JBS2924]
5.7 nM	Ac-TGLVSAGWYDYNMDHYREFT-NH2 [JBS2806]
3.4 nM	Ac-TGLVSAGWYDYNFDHYIEFT-NH2 [JBS2790]
5.9 nM	Ac-TGLVSAGWYDYNFDHYVEFT-NH2 [JBS2905]
4.4 nM and 5.5 nM	Ac-TGLVSAGWYDYNFDHYMEFT-NH2 [JBS2810]
4 nM	Ac-TGLVSAGWYDYNFDHYTEFT-NH2 [JBS2887]
5.4 nM	Ac-TGLVSAGWYDYNFDQYREFT-NH2 [JBS2847]
6.8 nM	Ac-TGLVSAGWYDYNFDHYEEFT-NH2 [JBS2752]
4.4 nM	Ac-TGLVSAGWYDYNFDTYREFT-NH2 [JBS2885]
4.4 nM	Ac-TGLVSAGWYDYNNDHYREFT-NH2 [JBS2825]
8.4 nM	Ac-TGLVSAGWYDNNFDHYREFT-NH2 [JBS2845]
2.2 nM	Ac-TGLVSAGWYDYNFDIYREFT-NH2 [JBS2788]
4 nM and 5.6 nM	Ac-MGLVSAGWYDYNFDHYREFT-NH2 [JBS2794]
5.2 nM	Ac-TGLVSAGWYDYNFDHYHEFT-NH2 [JBS2770]
3.6 nM	Ac-TGLVSAGWYDYNFDEYREFT-NH2 [JBS2750]

— patent US20150246947A1 (BAXALTA, published 2015)
